This assay has as its target T1, human PD-1 (programmed cell death receptor 1) (human, UniProt Q15116 25-170, 15N-labeled in the AIDA-NMR assay; covalently labeled with a fluorophore in the MST assay).
T1 construct: Programmed cell death receptor 1 (PD-1, CD279), human; In the cell-based ICB assays hPD-1 stands on Jurkat effector cells; also called hPD-1; CD279
Put plainly: MST; hPD-1 covalently labeled with a fluorophore, incubated with increasing concentrations of unlabeled hPD-L1 or mPD-L1; two independent dilution series, KD model. To be noted: both partners purified.

T1 sequence (Q15116 25-170): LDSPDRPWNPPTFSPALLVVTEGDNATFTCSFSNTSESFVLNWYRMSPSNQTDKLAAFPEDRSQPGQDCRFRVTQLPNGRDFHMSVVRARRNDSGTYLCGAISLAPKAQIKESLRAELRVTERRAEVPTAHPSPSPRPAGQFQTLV

B1: mouse PD-L1 (ligand)
chain: FTITAPKDLYVVEYGSNVTMECRFPVERELDLLALVVYWEKEDEQVIQFVAGEEDLKPQHSNFRGRASLPKDQLLKGNAALQITDVKLQDAGVYCCIISYGGADYKRITLKVNAPY
modifications: fluorescently labeled in the MST assay with antibodies
notes: PD-L1, mouse; In the h/mICB assay mPD-L1 is endogenous on IFN-gamma-treated B16-F10/TCRAct cells; also called mPD-L1
A word on the Kd: it is the constant that tells how readily two partners part at equilibrium. Read a low Kd as tighter binding. Molecule B1 displayed a Kd of 3.2 ± 0.2 µM.

(Values after paper PMC7788105 (iScience, 2020).)
